Laboratory results: patent US20240374744

System: huHF(+)-DOX (huHF(+) protein nanoparticle-doxorubicin conjugate)
Sequence (chain, as listed by the source): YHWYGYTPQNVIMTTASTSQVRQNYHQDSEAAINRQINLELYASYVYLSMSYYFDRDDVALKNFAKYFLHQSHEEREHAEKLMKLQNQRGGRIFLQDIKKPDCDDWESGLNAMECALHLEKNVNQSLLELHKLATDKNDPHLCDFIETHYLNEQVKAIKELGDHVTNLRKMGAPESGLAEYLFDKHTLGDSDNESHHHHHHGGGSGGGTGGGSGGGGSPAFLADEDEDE

| Substance | cleavage of the conjugate and release of doxorubicin (native-PAGE, UV absorbance), enzyme in LPM mixture | cleavage of the conjugate and release of doxorubicin (native-PAGE, Coomassie staining, UV absorbance of doxorubicin) |
| --- | --- | --- |
| cathepsin B | it was observed that the peptide was not specifically cleaved thereby the drug was not selectively released | – |
| cathepsin D | it was observed that the peptide was not specifically cleaved thereby the drug was not selectively released | – |
| cathepsin E | – | From 3 hours after staining, it was visually observed that the portion to which the anticancer drug was bound in the conjugate was effectively cleaved by cathepsin E |
| cathepsin L | it was observed that the peptide was not specifically cleaved thereby the drug was not selectively released | – |
